Results: article PMC1885261, “Structure of the dimeric N-glycosylated form of fungal β-N-acetylhexosaminidase revealed by computer modeling, vibrational spectroscopy, and biochemical studies” (BMC Structural Biology, 2007)

B1: β-N-acetylhexosaminidase (native form) (Aspergillus oryzae) (protein)
chain 1: VGVNPLPAPREISWGSSGPKSIAGELQLRTDSDSADGIVADAWNRAWETIVALRWVPAATEAPISSFEPFPTPTAGAS
chain 2: ASNSLQYVNVQVKDIEADLQHGVDESYTLDVEEDSDTITINAETVWGALHAFTTLQQLVISDGHGGLIIEEPVNIKDSPLYPYRGIMLDTGRNFVSLPKIFEQLEGMSLSKLNVLHWHIDDAQSWPIWVDVYPEMVKDAYSPHEIYSRNDVRNIVNYARARGIRVIPEIDMPSHSSSGWKQVDPEMVTCTDSWWSNDDWPLHTAVEPNPGQLDIIYNKTYEVVGNVYKELSDIFPDHWFHVGGDEIQPNCFNFSTHVTKWFAEDPSRTYHDLAQYWVDHAVPIFQNYSQERRLVMWEDIALSADNAHDVPKNIVMQSWNNGLEYISNLTARGYDVIVSSSDFLYLDCGHGGFVTNDPRYNVMANPDANTPNFNYGGNGGSWCAPYKTWQRIYDYDFTLNLTETQAKHIIGATAPLWGEQVDDINVSSMFWPRAAALAELVWSGNRDANGNKRTTEMTQRILNFREYLVANGVQAQALVPKYCLQHPHACDLYRNQAAIQ
notes: native enzyme purified from culture medium of A. oryzae; secreted, fully N-glycosylated (six sites), dimer; GH20
B2: deglycosylated β-N-acetylhexosaminidase (Aspergillus oryzae) (protein)
chain 1: VGVNPLPAPREISWGSSGPKSIAGELQLRTDSDSADGIVADAWNRAWETIVALRWVPAATEAPISSFEPFPTPTAGAS
chain 2: ASNSLQYVNVQVKDIEADLQHGVDESYTLDVEEDSDTITINAETVWGALHAFTTLQQLVISDGHGGLIIEEPVNIKDSPLYPYRGIMLDTGRNFVSLPKIFEQLEGMSLSKLNVLHWHIDDAQSWPIWVDVYPEMVKDAYSPHEIYSRNDVRNIVNYARARGIRVIPEIDMPSHSSSGWKQVDPEMVTCTDSWWSNDDWPLHTAVEPNPGQLDIIYNKTYEVVGNVYKELSDIFPDHWFHVGGDEIQPNCFNFSTHVTKWFAEDPSRTYHDLAQYWVDHAVPIFQNYSQERRLVMWEDIALSADNAHDVPKNIVMQSWNNGLEYISNLTARGYDVIVSSSDFLYLDCGHGGFVTNDPRYNVMANPDANTPNFNYGGNGGSWCAPYKTWQRIYDYDFTLNLTETQAKHIIGATAPLWGEQVDDINVSSMFWPRAAALAELVWSGNRDANGNKRTTEMTQRILNFREYLVANGVQAQALVPKYCLQHPHACDLYRNQAAIQ
notes: same polypeptide as P1, native purification, enzymatically N-deglycosylated under native conditions (endoglycosidase H, leaving core GlcNAc, or N-glycanase)

Substrate: CC(=O)N[C@H]1[C@H](Oc2ccc([N+](=O)[O-])cc2)O[C@H](CO)[C@@H](O)[C@@H]1O
Test: 4-nitrophenyl substrate hydrolysis assay
Assay type: biochemical, Aspergillus oryzae
Details: substrate concentrations around Km

Row | Protein | Km (native N-glycosylated form) | Km (deglycosylated form)
1 | B1 | 450 µM | –
2 | B2 | – | 710 µM
